In patent WO2021212049A2 one finds total buried surface area of the complex data, which are given here for one substance.

The target in this assay is trimeric SARS-CoV-2 spike (residues 1-1213), 986PP987, furin sites disrupted, C-terminal foldon and hexahistidine tag (SARS-CoV-2) (UniProt P0DTC2).

Substance “2B04 Fab (papain-cleaved Fab form of 2B04)” showed a total buried surface area of the complex of 656 Å2.
